Square brackets hold non-standard residues; d marks the D form. Ends that are not written are not given here. Arg(Me2a) = CN(C)C(=N)NCCC[C@H](N)C(=O)O; Lys(Me3) = C[N+](C)(C)CCCC[C@H](N)C(=O)O; Arg(Me2s) = CN=C(NC)NCCC[C@H](N)C(=O)O; pT = C[C@@H](OP(=O)(O)O)[C@H](N)C(=O)O; Lys(Me2) = CN(C)CCCC[C@H](N)C(=O)O; pS = N[C@@H](COP(=O)(O)O)C(=O)O; Lys(Me) = CNCCCC[C@H](N)C(=O)O; Me2a = not defined here; me2a = not defined here
T1: CaBdf1 BD2 (GST-tagged, wild-type) (Candida albicans (strain SC5314 / ATCC …, UniProt Q5A4W8))
T1 chain: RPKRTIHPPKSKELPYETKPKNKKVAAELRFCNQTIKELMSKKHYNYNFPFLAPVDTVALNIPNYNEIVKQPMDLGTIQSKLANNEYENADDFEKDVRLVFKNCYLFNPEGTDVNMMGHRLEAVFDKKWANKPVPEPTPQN

T2: CaBdf1 BD1 (GST-tagged, wild-type) (Candida albicans (strain SC5314 / ATCC …, UniProt Q5A4W8))
T2 chain: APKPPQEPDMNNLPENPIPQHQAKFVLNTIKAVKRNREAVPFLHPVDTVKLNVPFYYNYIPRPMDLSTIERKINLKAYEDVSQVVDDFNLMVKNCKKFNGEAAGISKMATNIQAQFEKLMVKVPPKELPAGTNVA


What was measured:
[1] = biological target: T1, CaBdf1 BD2 (GST-tagged, wild-type); assay: histone peptide array (Active Motif MODified), 1 uM GST-tagged bromodomain, anti-GST detection, normalized mean intensity
[2] = biological target: T2, CaBdf1 BD1 (GST-tagged, wild-type); assay: as above

Binder	binding score [1]	binding score [2]
PRKQLATKAARK(Me)[pS]APATGG	0.00333	0.0029
PRKQLATKAAR(Me2s)K(Ac)SAPATGG	0.00814	0.0123
SGRGKQGGKARAKAKSRSS (not fully specified)	0.00259	0.0087
AR(Me2a)[pT]K(Me)QTARKSTGGKAPRKQ (reading uncertain)	0.00037	0.00471
SGRGKGGKGLGKGGAKRHR (S G R G K G G K G L G K G G A Kac R H R)	0.00296	0.0149
ARTKQTARKSTGGKAPRKQ (A R T Kme2 Q T A Rme2a Kme1 S T G G K A P R K Q)	0.00666	0.0363
ARTKQTARKSTGGKAPRKQ (A Rme2a T Kme2 Q T A Rme2s Kme1 S T G G K A P R K Q)	0.0037	0.00399
ARTKQTA[Arg(Me2a)]K(Ac)[pS]TGGKAPRKQ	0.00407	0.00399
ARTKQTARKSTGGKAPRKQ (A R T Kac Q T A Rme2a Kme3 S T G G K A P R K Q)	0.00592	0.0087
R[Arg(Me2s)]K[Lys(Me)]K(Ac)R[Arg(Me2a)][Lys(Me2)]K[Lys(Me3)]R[Lys(Me)][Arg(Me2s)]KK(Ac)RK [background 02]	0.00444	0.00906
SGRGKGGKGLGKGGAKRHR (not fully specified; histone peptide post-translational modifications (acetyl, methyl, phospho, citrulline) listed in columns 4-7 and embedded in the sequence text; N-terminus free or acetylated in column 8)	0.00999	0.00725
SGRGK(Ac)QGGK(Ac)ARAKAKSRSS	0.0133	0.0283
A[Arg(Me2a)]T[Lys(Me2)]QTA[Arg(Me2s)][Lys(Me2)]STGGKAPRKQ	0.00666	0.0029
ARTKQTARKSTGGKAPRKQ (A Rme2s pT Kme2 Q T A R K S T G G K A P R K Q)	0.00333	0.00363
ARTKQTARKSTGGKAPRKQ (A R T K Q T A Rme2s Kac S pT G G K A P R K Q)	0.00407	0.00363
[pS]GRGK(Ac)QGGKARAKAKSRSS	0.0215	0.0156
AR(Me2s)TK(Me3)QTAR(Me2a)K(Ac)STGGKAPRKQ (reading uncertain)	0.0037	0.0406
PRKQLATKAAR(Me2s)K(Me)SAPATGG	0.00296	0.00435
PRKQLATKAAR(Me2s)K(Me3)[pS]APATGG	0.00629	0.00109

Binder	binding score [1]	binding score [2]
AR(me2a)TK(Ac)QTAR(me2a)K(Me)STGGKAPRKQ (reading uncertain)	0.00888	0.00761
ARTKQTARKSTGGKAPRKQ (A R pT Kme2 Q T A R K S T G G K A P R K Q)	0.0037	0.00326
ARTKQTARKSTGGKAPRKQ (A Rme2a T Kme1 Q T A Rme2a Kac S T G G K A P R K Q)	0.00333	0.0254
ARTKQTARKSTGGKAPRKQ (A Rme2a T Kme3 Q T A Rme2s Kac S T G G K A P R K Q)	0.0037	0.0337
ARTKQTA[Arg(Me2a)]K(Me)[pS]TGGKAPRKQ	0.00407	0.00326
ARTKQTARKSTGGKAPRKQ (A Rme2a T Kme2 Q T A Rme2s Kac S T G G K A P R K Q)	0.00333	0.0435
PRKQLATKAARKSAPATGG (not fully specified)	0.00111	0.00798
PRKQLATKAAR(Me2s)K(Me)[pS]APATGG	0.00259	0.00254
ARTKQTARKSTGGKAPRKQ (A Rme2a T Kme3 Q T A Rme2a Kac S T G G K A P R K Q)	0.00999	0.0392
ARTKQTARKSTGGKAPRKQ (A Rme2s T Kac Q T A Rme2s Kac S T G G K A P R K Q)	0.00629	0.041
ARTKQTARKSTGGKAPRKQ (A Rme2a T Kac Q T A Rme2s Kme1 S T G G K A P R K Q)	0.00296	0.00471
A[Arg(Me2a)]TK(Ac)QTARKSTGGKAPRKQ	0.00148	0.00363
[pS]GRGK(Ac)QGGK(Ac)ARAK(Ac)AKSRSS	0.00888	0.0515
RKSAPATGGVKKPHRYRPG (R K S A P A T G G V Kme3 K P H R Y R P G) [H3 26-45]	0.00777	0.00761
AR(Me2a)TK(Me3)QTARK(Me2)STGGKAPRKQ (reading uncertain)	0.00296	0.00145
ARTKQTARKSTGGKAPRKQ (A Rme2s T Kme3 Q T A R K S T G G K A P R K Q)	0	0.00363
ARTKQTARKSTGGKAPRKQ (A R T K Q T A Rme2s Kme3 S pT G G K A P R K Q)	0.0037	0.00399
SGRGKQGGKARAK(Ac)AKSRSS	0.0141	0.0943
ARTKQTARKSTGGKAPRKQ (A R T K Q T A R K S pT G G K A P R K Q)	0.00037	0.00326

Reference: PMC5454392, “Selective BET bromodomain inhibition as an antifungal therapeutic strategy” (Nature Communications, 2017)
